From patent US20220177587A1, “METHODS AND USES OF VARIANT CD80 FUSION PROTEINS AND RELATED CONSTRUCTS” (Alpine Immune Sciences, Inc., priority 2018, published 2022)
Residue numbers refer to the chain shown, from its start. In names and notes the source's numbering stands.

B1: CD80 IgV-Fc E35D/D46E/M47L/V68M/L85Q/F92L (Fc fusion)
chain: VIHVTKEVKEVATLSCGHNVSVEELAQTRIYWQKDKKMVLTMMSGELNIWPEYKNRTIFDITNNLSIMILALRPSDEGTYECVVQKYEKDALKREHLAEVTLSVKAD
B2: CD80 IgV-Fc H18Y/V22A/E35D/T41S/M47V/T62N/A71G/A91G (Fc fusion)
chain: VIHVTKEVKEVATLSCGYNVSAEELAQTRIYWQKDKKMVLSMMSGDVNIWPEYKNRTIFDINNNLSIVILGLRPSDEGTYECVVLKYEKDGFKREHLAEVTLSVKAD
B3: CD80 IgV-Fc S15T/H18Y/E35D/M47V/T62A/N64S/A71G/L85Q/D90N (Fc fusion)
chain: B2 chain with S15T, A22V, S41T, N62A, N64S, L85Q, D90N, G91A
B4: variant CD80 IgV-Fc E35D/M47I/L85Q/D90G (Fc fusion)
chain: B1 chain with E46D, L47I, M68V, D90G, L92F
B5: variant CD80 IgV-Fc Q27H/E35D/M47I/L85Q/D90G (Fc fusion)
chain: B1 chain with Q27H, E46D, L47I, M68V, D90G, L92F
B6: variant CD80 IgV-Fc E35D/M47I/T62S/L85Q (Fc fusion)
chain: B1 chain with E46D, L47I, T62S, M68V, L92F
B7: variant CD80 IgV-Fc R29H/E35D/M43V/M47I/I49V (Fc fusion)
chain: B1 chain with R29H, M43V, E46D, L47I, I49V, M68V, Q85L, L92F
B8: variant CD80 IgV-Fc Q33L/E35D/M47I/N48D/A71G (Fc fusion)
chain: B1 chain with Q33L, E46D, L47I, N48D, M68V, A71G, Q85L, L92F
B9: CD80 E35D/M47L/Y53F/V68M/A71G/K93R/E95V IgV-Fc (Fc fusion)
chain: B1 chain with E46D, Y53F, A71G, Q85L, L92F, K93R, E95V
B10: CD80 E35D/T41S/D46E/M47I/V68M/K93R/E95V IgV-Fc (Fc fusion)
chain: B1 chain with T41S, L47I, Q85L, L92F, K93R, E95V
B11: CD80 T13R/Q33R/E35D/M38I/M47L/V68M/E95V/L97Q IgV-Fc (Fc fusion)
chain: B1 chain with T13R, Q33R, M38I, E46D, Q85L, L92F, E95V, L97Q
B12: CD80 H18Y/E35D/V68M/T79M/L85M IgV-Fc (Fc fusion)
chain: B1 chain with H18Y, E46D, L47M, T79M, Q85M, L92F
B13: CD80 T13R/Q33R/E35D/M47L/V68M IgV-Fc (Fc fusion)
chain: B1 chain with T13R, Q33R, E46D, Q85L, L92F
B14: CD80 E35D/M47V/N48K/V68M/A71G/L85M IgV-Fc (Fc fusion)
chain: B1 chain with E46D, L47V, N48K, A71G, Q85M, L92F
B15: CD80 T13R/Q33R/E35D/M47L/V68M/L85M IgV-Fc (Fc fusion)
chain: B1 chain with T13R, Q33R, E46D, Q85M, L92F
B16: CD80 E35D/M47V/N48K/V68M/L85M IgV-Fc (Fc fusion)
chain: B1 chain with E46D, L47V, N48K, Q85M, L92F
B17: CD80 H18Y/E35D/M47V/V68M/L85M IgV-Fc (Fc fusion)
chain: B1 chain with H18Y, E46D, L47V, Q85M, L92F
B18: CD80 E35D/M47V/N48K/V68M/K89N IgV-Fc, (EAAAK)3 linker (Fc fusion)
chain: VIHVTKEVKEVATLSCGHNVSVEELAQTRIYWQKDKKMVLTMMSGDVKIWPEYKNRTIFDITNNLSIMILALRPSDEGTYECVVLKYENDAFKREHLAEVTLSVKADEAAAKEAAAKEAAAK
B19: CD80 E35D/M47V/N48K/V68M/K89N IgV-Fc, EAAAK linker (Fc fusion)
chain: VIHVTKEVKEVATLSCGHNVSVEELAQTRIYWQKDKKMVLTMMSGDVKIWPEYKNRTIFDITNNLSIMILALRPSDEGTYECVVLKYENDAFKREHLAEVTLSVKADEAAAK

biological target: human PD-L1 (human) (UniProt Q9NZQ7); assay: flow cytometry, MFI on CHO/PD-L1 over MFI on Jurkat (CD28)
Sequence (Q9NZQ7 19-290): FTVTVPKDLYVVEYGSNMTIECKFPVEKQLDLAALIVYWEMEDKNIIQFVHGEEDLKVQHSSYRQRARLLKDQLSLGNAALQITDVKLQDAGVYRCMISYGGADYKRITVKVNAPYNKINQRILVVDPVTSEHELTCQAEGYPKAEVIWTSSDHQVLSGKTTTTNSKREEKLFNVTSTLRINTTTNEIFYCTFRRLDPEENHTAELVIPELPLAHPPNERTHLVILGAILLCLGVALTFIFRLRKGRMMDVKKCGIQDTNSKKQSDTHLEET

Ratio of PDL1:CD28 | Binder
863 | B1
5 | B2
13 | B3

biological target: human CTLA-4 (human) (UniProt P16410); assay: flow cytometry, CHO cells expressing huCTLA4
Sequence (P16410 36-223): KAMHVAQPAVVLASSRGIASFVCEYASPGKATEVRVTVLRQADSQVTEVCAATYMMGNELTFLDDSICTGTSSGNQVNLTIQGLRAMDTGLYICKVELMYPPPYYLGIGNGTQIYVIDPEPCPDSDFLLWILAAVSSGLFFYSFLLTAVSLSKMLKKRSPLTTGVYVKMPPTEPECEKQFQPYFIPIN

MFI at 33.3 nM | Binder
248000 MFI | B4
258000 MFI | B5
301000 MFI | B6
4690 MFI | B7
117000 MFI | B8

biological target: human PD-L1 (human) (UniProt Q9NZQ7); assay: flow cytometry, CHO cells expressing PD-L1

Fold change to WT CD80 | MFI at 33.3 nM | Binder
486 fold | 25000 MFI | B9
287 fold | 14800 MFI | B10
372 fold | 19200 MFI | B11
290 fold | 14900 MFI | B12
285 fold | 14700 MFI | B13
442 fold | 22800 MFI | B14
368 fold | 18900 MFI | B15
148 fold | 7620 MFI | B16
326 fold | 16800 MFI | B17

biological target: CD28 (human) (UniProt P10747); assay: not given

IL2-luciferase reporter, fold increase in RLU over WT CD80-IgV-Fc at 5.0 nM | Binder
4.52 fold | B18
4.38 fold | B19

biological target: human PD-L1 (human) (UniProt Q9NZQ7); assay: not given

IL2-luciferase reporter, fold increase in RLU over WT CD80-IgV-Fc at 5.0 nM | Binder
4.52 fold | B18
4.38 fold | B19

biological target: human PD-L1 (human) (UniProt Q9NZQ7); assay: flow cytometry, MFI on PD-L1 over MFI on CD28

Ratio of PDL1:CD28 | Binder
65.3 | B9
31.1 | B10
17.2 | B11
14.3 | B12
1040 | B13
75.4 | B14
169 | B15
31.1 | B16
45 | B17

biological target: human PD-L1 (human) (UniProt Q9NZQ7); assay: flow cytometry, CHO cells expressing huPD-L1, vs WT CD80 ECD-Fc (R&D)

Fold change to WT CD80 | Binder
3.01 fold | B4
2.58 fold | B5
3.79 fold | B6
0.13 fold | B7
2.62 fold | B8

biological target: CD28 (human) (UniProt P10747); assay: flow cytometry, Jurkat cells (CD28); MFI over CD80 WT IgV-Fc

Fold change to WT CD80 | Binder
23 fold | B18
47.1 fold | B19

biological target: CD28 (human) (UniProt P10747); assay: flow cytometry, Jurkat/IL2 reporter cells (CD28), vs WT CD80 ECD-Fc (R&D)

Fold change to WT CD80 | Binder
0.23 fold | B4
0.19 fold | B5
0.1 fold | B6
0.02 fold | B7
0.04 fold | B8

biological target: CD28 (human) (UniProt P10747); assay: flow cytometry, Jurkat cells (CD28)

MFI at 33.3 nM | Fold change to WT CD80 | Fold change to WT | Binder
1280 MFI |  |  | B18
2630 MFI |  |  | B19
383 MFI | 12.2 fold |  | B9
476 MFI | 15.2 fold |  | B10
1110 MFI | 35.4 fold |  | B11
1040 MFI | 33.2 fold |  | B12
14.1 MFI | 0.4 fold |  | B13
302 MFI | 9.6 fold |  | B14
15 MFI |  | 0.4 fold | B1
112 MFI | 3.6 fold |  | B15
245 MFI | 7.8 fold |  | B16
1590 MFI |  | 38.5 fold | B2
373 MFI | 11.9 fold |  | B17
1070 MFI |  | 25.9 fold | B3

biological target: human PD-L1 (human) (UniProt Q9NZQ7); assay: flow cytometry, CHO cells stably expressing PD-L1

MFI at 33.3 nM | Fold change to WT | Binder
24500 MFI |  | B18
22900 MFI |  | B19
13200 MFI | 158 fold | B1
8460 MFI | 101 fold | B2
13900 MFI | 166 fold | B3

biological target: human CTLA-4 (human) (UniProt P16410); assay: flow cytometry, CHO cells expressing CTLA4

Fold change to WT CD80 | MFI at 33.3 nM | Binder
9.1 fold | 16000 MFI | B9
10.5 fold | 18400 MFI | B10
11.8 fold | 20700 MFI | B11
9.3 fold | 16300 MFI | B12
11.8 fold | 20700 MFI | B13
9.5 fold | 16600 MFI | B14
7.7 fold | 13400 MFI | B15
8.9 fold | 15600 MFI | B16
10.5 fold | 18400 MFI | B17

biological target: CD28 (human) (UniProt P10747); assay: flow cytometry, Jurkat/IL2 reporter cells (CD28)

MFI at 33.3 nM | Binder
4100 MFI | B4
3510 MFI | B5
1760 MFI | B6
336 MFI | B7
644 MFI | B8

biological target: human CTLA-4 (human) (UniProt P16410); assay: flow cytometry, CHO cells expressing huCTLA4, vs WT CD80 ECD-Fc (R&D)

Fold change to WT CD80 | Binder
1.57 fold | B4
1.64 fold | B5
1.91 fold | B6
0.03 fold | B7
0.74 fold | B8

biological target: human PD-L1 (human) (UniProt Q9NZQ7); assay: flow cytometry, CHO/PD-L1 cells; MFI over CD80 WT IgV-Fc

Fold change to WT CD80 | Binder
525 fold | B18
491 fold | B19

biological target: human CTLA-4 (human) (UniProt P16410); assay: flow cytometry, CHO cells stably expressing CTLA4

MFI at 33.3 nM | Fold change to WT CD80 | Binder
27100 MFI |  | B18
27500 MFI |  | B19
214 MFI | 0.2 fold | B1
10300 MFI | 10 fold | B2
11000 MFI | 10.7 fold | B3

biological target: human PD-L1 (human) (UniProt Q9NZQ7); assay: flow cytometry, CHO cells expressing huPD-L1

MFI at 33.3 nM | Binder
35700 MFI | B4
30700 MFI | B5
45000 MFI | B6
1590 MFI | B7
31200 MFI | B8

biological target: human CTLA-4 (human) (UniProt P16410); assay: flow cytometry, CHO/CTLA4 cells; MFI over CD80 WT IgV-Fc

Fold change to WT CD80 | Binder
22.6 fold | B18
23 fold | B19
